Data: article PMC7893820

Target: mGFP-tagged N-RasG12V (UniProt P01111)
Experiment: FRET or BRET; FLIM-FRET in fixed HEK293 EBNA cells co-transfected with donor mGFP-NRasG12V and acceptor mCherry-PDE6δ plasmids (1:3); apparent FRET efficiency from the donor's lifetime; cells with scrambled siRNA in 0.1% DMSO (control), ICMT siRNA, or 2.5 μM deltarasin for 24 h

Chain of mGFP-tagged N-RasG12V (P01111 whole entry G12V): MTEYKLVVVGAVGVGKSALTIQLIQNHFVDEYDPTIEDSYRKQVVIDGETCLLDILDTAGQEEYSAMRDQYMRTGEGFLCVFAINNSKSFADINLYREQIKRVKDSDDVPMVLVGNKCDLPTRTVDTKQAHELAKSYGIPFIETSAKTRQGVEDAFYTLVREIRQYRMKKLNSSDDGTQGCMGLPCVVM
Chain of mCherry-tagged PDE6δ (O43924 whole entry, stated change not applied): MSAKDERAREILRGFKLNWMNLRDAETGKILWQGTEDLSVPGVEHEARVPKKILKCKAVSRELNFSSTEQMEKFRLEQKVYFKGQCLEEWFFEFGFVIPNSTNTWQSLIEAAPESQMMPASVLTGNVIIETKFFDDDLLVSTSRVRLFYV

- reduction of FRET efficiency with 2.5 μM deltarasin: 50%
Substance: mCherry-tagged PDE6δ (from UniProt O43924 1-150) (natural protein)
